# Laboratory results as given in the nanobody polyreactivity screen of Harvey et al. (2022).
# Assay: yeast display, Sf9 membrane polyspecificity reagent, FACS + sequencing; frameworks hold sequencing errors
# How it was run: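 Galactose-induced (36–48 hours) yeast carrying a synthetic nanobody display library were exposed to 10% biotinylated, detergent-solubilized Sf9 membrane reagent at 4 °C for 1 hour. FACS followed streptavidin microbead enrichment, using low and high (top ~1%) gates for expression (anti-HA) and reagent binding (streptavidin). Colony PCR, MiSeq 2 × 250 sequencing and CDR-length filtering followed. Labels for polyreactivity reflect the gate of origin.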
row,Sequence,polyreactivity (PSR sort gate)
1,QVQLVESGGGLVQAGGSLRLSCASSGISFRRNAMGWYRQAPGKERELVAISTICGSTYYADSVNGRFTIARDNAKNTVYLQMNTLKPEDTAVYYCAAEGKSTGVYLDGGEGFAYDYWGQGTQVTVSS,low polyreactivity
2,QVQLVESGGGLVQAGGSLRLSCAASGRTFHYYAMGWYRQAPGKERELVAAISSTGGSTYYADSVKGRFTISRDNAKHPVYVQMNSLKPADTAVYSCAARQFGYYHVRNEYWGQGTQVTVSS,high polyreactivity
3,QVQLVESGGGLVQAGGSLRLSCAASGNTFGAYTMGWYRQAPGKEREFVAAISYSGGITFYADSVKGRFTISRDNAKNTVYLQMNSLKPEDTAVYYCAARTYRYGYWYDYWGQGTQVTVSS,high polyreactivity
4,QVQLVESGGGLVQAGGSLRLSCAASGSIFAKYYARGWYRQAPVKERELVAAITSGGITNYADSVKGRFTISRDNAKNSVYLQMNSLKPEDTAVYYCAARKWLSAFDYWGQGTQVTVSS,low polyreactivity
5,QVQLVESGGGLVQAGGSLRLSCAASGLIIRYYDMGWYRQAPGKEREFVAAITWNGGSTYADSVKGRFTISRDNAKNTVYLQMNSLKPEDTAVYYCAADLSYWDDFDYWGHGTQVTVSS,low polyreactivity
6,QVQLVESGGGLVQAGGSLRLSCAASGFTFPDYAMGWYRQAPGKERELVAAISSDGSTYYADSVKGRFTISRDNAKNTVYLQMNSLKPEDTAVYYCAAYVVWLYGYDYWGQGTKVTVSS,low polyreactivity
7,QVQLVESGGGLVQEGGSLRLSCAASGLIVGQNAMGWYRQAPGKDRELVAAISQRGGTYYADSVKGRFTISRDNAKNTVYLQMNSLKPEDTAVLYCAARVGLQPGRYYLRYDYWGQGTQVTVSS,low polyreactivity
8,QVHLVESGGGLVQAGGSLRLSCAASGFTFEGYAMGGYRQQPGKEREYADSVKGRFTISRDNAKNTVYLQMNSLKPEDTAVYYCASTSYVSSSRTIYSGFVEFEYLGQGTQVTVSS,low polyreactivity
9,QVQLVESGGGLVQAGGSLRLSCAASGRTFAYYTMGWYRQAPGKERELVAAISWIGGSTYYADSVKGRFTISRDNAKNTVYLQMNSLKPEDTAVYYCNAVGLHWWPGDYWGQGTQVTVSS,low polyreactivity
10,QVQRVESGGGLVQAGGSLRLSCAASGNIFVYYAMGWYRQAPGKERELVAAISSDVSTYYADSVKGRFTISRDNAKNTVYLQMNSLKPEDTAVYYCATTGYGSYVIYWGQGTQVTVSS,low polyreactivity
11,QVQLVESGGVLVHAGGSLRLSCAASGITFEYYTMGWYRKAPGKERELVAAISSGGGSTYYADSVKGRFTISRDNAKNTVYLQMKSLKPEDTAVYYCAARGYRADQWEYDYWGQGTQVTVSS,low polyreactivity
12,QVQLVESGGGLVQAGGSLRLSCAASGITFRGYAMGWYRQAPGKERELVADITWNGGSTYYADSVKGRFTISRDNAKNTVYLQMNSLKPEDPAVYYCAADGYRIYWSSYRFYYWGQGTQVTVSS,high polyreactivity
13,QVQLVESGGGLVQAGGSLRLSCAASGFILDYNAMGWYRQAPGKERELVAAITNGGITYYADSVKGRFTISRDNAQNTVYLQMNSLKPEDTAVYYCAADNDTDHSSATYGYDYWGQGTQVTVSS,low polyreactivity
14,QVQLVESGGGLVQAGGSLRLSCAASGFTFFIYAMGWYRQAPGKERELVAAISLSGTSTYYADSVKGRFTISRDNAKNSVYLQMNSLKPEDTAVYYCAKDGAYWTYYSGYDYWGQVTQVTVSS,low polyreactivity
15,QVQLHESGGGLVQAGGSLRRSCAPSGTISYAGPMGWYRQAPGKEREFVAGIGVGSNTNYADSVKGRYTIIRDNAKNTVYLQMNSLKPEDTAVYYCAVGGYAPLGRPYWGQGTQVTVSS,low polyreactivity
16,QVQLVESGGGLVQAGGSLRLSCAASGYTFYSNAMGWYRQAPGKERELVAVISRGGGTYYADSVKGRFTISRDNAKNTVYLQMNSLKPEDTAVYYCARRIGHGSRPYWLETWRYPYEYWGQGTQVTVSS,low polyreactivity
17,QVQLVESGGGLVQAGGSLRLSSAASGITFYDYAMGWSRPSPGKERELVAAINSSGVRTYYADSVKGRFTISRDNAKNTVYLQMKSLNPEYTAVYYCAAKLVYGGRYGYWGQGTQVTVSS,high polyreactivity
